Source: the supplement of paper PMC9732359
± gives the uncertainty stated by the source.

Test: protein stability index of a GFP-peptide fusion (yeast GPS) (PSI 1-4); higher = more stable; sorted into four equal gates, so the index is relative within each strain
Procedure, shortened: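 The protein stability index combines read frequencies across sorting gates, each weighted by its gate number and then summed. To obtain those frequencies, a pooled yeast library of GFP fusions to tiled 17-residue yeast protein peptides, on a plasmid also expressing Cherry, was grown to mid-log phase in leucine-free medium. The cells were sorted into four equal gates by GFP/Cherry ratio before plasmid amplification by PCR and Illumina sequencing.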

| Sequence | protein stability index (doa10∆) | protein stability index (pdr5∆) | protein stability index (san1∆) | protein stability index (ubr1∆) |
| --- | --- | --- | --- | --- |
| LLTVEEGQLKPGDGSSY [RPC25] | 3.43 ± 0.15 | 3.23 ± 0.24 | 2.83 ± 0.18 | 3.27 ± 0.14 |
| QTYINQELGFCELLKLT [SSN2] | 2.81 ± 0.24 | 2.45 ± 0.12 | 2.39 ± 0.17 | 2.67 ± 0.093 |
| STKRVTKHPSLKTLTHK [POP7] | 2.56 ± 0.062 | 2.78 ± 0.06 | 2.56 ± 0.083 | 2.64 ± 0.061 |
| LFKYQGHIGAYLIVAGV [PUP1] | 1.66 ± 0.067 | 2.04 ± 0.06 | 1.39 ± 0.12 | 2.53 ± 0.055 |
| KFGACVAQGIMNAGGRN [RPN2] | 3.02 ± 0.14 | 2.73 ± 0.28 | 2.52 ± 0.23 | 2.52 ± 0.13 |
| GMGGGMPDMNEMMKMMQ [SRP54] | 3.17 ± 0.21 | 3.51 ± 0.23 | 3.58 ± 0.083 | 3.35 ± 0.081 |
| YDDEQNTSAQHVESDKI [IRR1] | 3.25 ± 0.094 | 3.04 ± 0.053 | 3.06 ± 0.065 | 3.27 ± 0.057 |
| GNQRKILQYSRTWYESF [YJR042W/NUP85] | 2.36 ± 0.099 | 2.79 ± 0.1 | 2.28 ± 0.17 | 2.21 ± 0.21 |
| TLQLGQEFQLKQINHQG [RPB4] | 3.22 ± 0.26 | 3.28 ± 0.15 |  | 3.38 ± 0.24 |
| LEFRWLTSSKSVIVSQF [SIN4] | 1.73 ± 0.056 | 1.56 ± 0.059 | 1.6 ± 0.087 | 1.42 ± 0.061 |
| SQTTLVQFGLNEETFTV [ARP9] | 2.85 ± 0.086 | 2.92 ± 0.072 | 2.77 ± 0.069 | 2.64 ± 0.059 |
| VNNRDSEKGFSKEQIHG [YCS4] |  | 3.49 ± 0.18 |  |  |
| FDPVYTTVITVFLEFSL [YML103C/NUP188] | 1.45 ± 0.043 | 1.69 ± 0.043 | 1.8 ± 0.072 | 1.62 ± 0.023 |
| GLVHDLCHPKKEKYGLA [SMC1] | 2.59 ± 0.11 | 2.84 ± 0.12 | 2.81 ± 0.29 | 2.17 ± 0.083 |
| LMAQIFFGPTYYQRLRH [RPB2] | 2.02 ± 0.035 | 1.81 ± 0.032 | 2.08 ± 0.048 | 2.04 ± 0.031 |
| HMDYDGNIVKEFENKFQ [YMR129W/POM152] | 3.28 ± 0.069 | 3.33 ± 0.082 | 3.36 ± 0.049 | 3.22 ± 0.055 |
| PFREFLQVLIDQLDSEA [ECM29] | 3.38 ± 0.095 | 2.6 ± 0.12 | 3.08 ± 0.089 | 3.01 ± 0.065 |
| GEIEIKPNEEEELGFWD [RPN13] | 3.15 ± 0.13 | 3.19 ± 0.097 | 3.25 ± 0.074 | 3.24 ± 0.094 |
| KRINKFLDSVHKQGSSY [POP7] | 2.61 ± 0.04 | 2.52 ± 0.033 | 2.65 ± 0.045 | 2.37 ± 0.031 |
| REKLAEVYKAEKDAVSV [RPS24A] | 3.27 ± 0.11 | 3.17 ± 0.069 | 3.45 ± 0.054 | 3.33 ± 0.11 |
| PSTNAQNVNVPSAFNFT [YOR098C/NUP1] | 2.6 ± 0.046 | 2.73 ± 0.054 | 2.67 ± 0.041 | 2.75 ± 0.045 |

| Sequence | protein stability index (doa10∆) | protein stability index (pdr5∆) | protein stability index (san1∆) | protein stability index (ubr1∆) |
| --- | --- | --- | --- | --- |
| VKNNQELDQEYRSCETQ [SMC4] | 2.95 ± 0.2 |  |  |  |
| LSEATESDLYKLKECPF [RPB2] | 3.12 ± 0.11 | 2.91 ± 0.19 | 3.23 ± 0.1 | 2.91 ± 0.1 |
| IAKTFTVDVSSPTENGV [RPL22A] | 3.04 ± 0.11 | 3 ± 0.1 | 2.9 ± 0.094 | 2.99 ± 0.077 |
| SEMLAKYSDILLKKATK [CDC53] | 2.62 ± 0.078 | 2.44 ± 0.12 |  | 2.47 ± 0.17 |
| ATNRPDTLDPALLRPGR [RPT4] | 2.91 ± 0.12 | 3.18 ± 0.14 | 2.89 ± 0.1 | 3.1 ± 0.14 |
| RSTDRDRVKVIECFKPG [CSL4] | 3.14 ± 0.14 | 3.1 ± 0.2 | 3.26 ± 0.1 | 2.99 ± 0.088 |
| IHSLIPVAKWFVKFITY [SIN4] | 2.7 ± 0.048 | 2.52 ± 0.04 | 2.77 ± 0.044 | 2.79 ± 0.04 |
| DSSTTSSNSQQSTPQPD [ITC1] | 3.04 ± 0.046 | 2.85 ± 0.048 | 2.69 ± 0.044 | 2.95 ± 0.038 |
| NGKIWVKCEELSNTLAC [RRP40] | 3.29 ± 0.12 | 3.24 ± 0.13 | 3.26 ± 0.067 | 3.6 ± 0.16 |
| DKDAFIPKLKPAPINSL [SNU114] | 2.81 ± 0.069 | 2.88 ± 0.063 | 2.83 ± 0.05 | 2.84 ± 0.054 |
| SIYDKWTDPNLKSSLAD [RPN1] | 2.99 ± 0.1 | 2.96 ± 0.067 | 2.88 ± 0.062 | 3.19 ± 0.054 |
| INDAGKAKKLIQSLPPT [RPL38] | 2.17 ± 0.047 | 2.38 ± 0.042 | 1.96 ± 0.059 | 2.56 ± 0.03 |
| MTSENPDVLLSRVINVV [RRP6] | 1.39 ± 0.12 | 1.61 ± 0.083 | 1.49 ± 0.12 | 2.27 ± 0.14 |
| KTGTKPAAVFTETLKHD [RPL4A] | 2.24 ± 0.077 | 2.19 ± 0.17 | 1.74 ± 0.15 | 2.54 ± 0.11 |
| LNYGNICEPKETLSIFT [YJL039C/NUP192] | 2.02 ± 0.061 | 1.75 ± 0.056 | 2.02 ± 0.12 | 1.73 ± 0.054 |
| TFVERLPNETINDRNDR [DIS3] |  |  |  | 2.28 ± 0.11 |
| ELISLRKILESSNIVNE [YIL149C/MLP2] | 2.17 ± 0.089 | 2.53 ± 0.068 | 2.33 ± 0.064 | 2.12 ± 0.1 |
| SELLARDIFQEDEENSD [RGR1] | 3.48 ± 0.12 | 3.37 ± 0.12 | 3.02 ± 0.14 | 3.27 ± 0.17 |
| DDELMNWRRLSGRNIHL [SSN2] | 3 ± 0.088 | 2.91 ± 0.074 | 3.01 ± 0.087 | 3.19 ± 0.09 |
| YGQRAVLKFAAHTGATP [RPS0B] | 2.27 ± 0.055 | 2.88 ± 0.039 | 2.66 ± 0.046 | 2.66 ± 0.041 |
| SAKPTFSFSKSEEERKS [YOR098C/NUP1] | 1.96 ± 0.14 |  | 1.93 ± 0.24 | 2.79 ± 0.25 |
